What was measured:
[1] = target: adenovirus E1B-55 kDa protein (Ad5) (UniProt P03243); test: cell-based or functional assay
[2] = target: T1, adenovirus E1B-55 kDa protein (Ad5, UniProt P03243 1-496); test: cell-based or functional assay
T1 sequence: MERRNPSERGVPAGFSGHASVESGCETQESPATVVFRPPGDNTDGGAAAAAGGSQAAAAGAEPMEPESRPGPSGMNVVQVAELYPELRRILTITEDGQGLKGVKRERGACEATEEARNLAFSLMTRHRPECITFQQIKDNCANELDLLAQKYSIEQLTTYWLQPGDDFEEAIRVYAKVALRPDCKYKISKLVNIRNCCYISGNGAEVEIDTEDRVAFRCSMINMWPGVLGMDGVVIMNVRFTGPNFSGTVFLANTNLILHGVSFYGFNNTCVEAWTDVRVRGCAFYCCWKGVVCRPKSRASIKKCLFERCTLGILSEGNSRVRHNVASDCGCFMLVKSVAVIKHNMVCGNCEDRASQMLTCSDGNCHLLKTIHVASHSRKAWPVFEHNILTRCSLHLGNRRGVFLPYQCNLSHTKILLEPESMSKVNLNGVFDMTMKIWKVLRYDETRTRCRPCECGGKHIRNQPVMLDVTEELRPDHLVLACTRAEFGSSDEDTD

For “E4orf6 variant R240,244,251A (from UniProt P03239 1-294)”, the HeLa cells in which the E1B-55 kDa protein was retained [1] was > 62 % of cells, the cells in which the E1B-55 kDa protein was relocalized to the nucleus [1] was 60 % of cells and the value for nuclear E1B-55 kDa protein retention [1] was 62%.

“E4orf6 variant R240,251A (from UniProt P03239 1-294)” was tested, and the cells with the E1B-55 kDa protein retained in the nucleus [1] was 70 % of cells.

With “E4orf6 variant R240A (from UniProt P03239 1-294)” the cells with the E1B-55 kDa protein retained in the nucleus [1] was 90 % of cells.

For “E4orf6 variant R240E (from UniProt P03239 1-294)”, the cells with predominantly cytoplasmic E1B-55 kDa protein [1] was 46 % of cells, the cells with predominantly nuclear E1B-55 kDa protein [1] was 55 % of cells and the cells with uniform distribution of the E1B-55 kDa protein [1] was 4 % of cells.

In the case of “E4orf6 variant R244E (from UniProt P03239 1-294)”, the cells with predominantly nuclear E1B-55 kDa protein [1] is reported as 85 % of cells and the value for nuclear E1B-55 kDa protein retention [1] is reported as 91%.

In the case of “E4orf6 variant R248,251A (from UniProt P03239 1-294)”, the HeLa cells in which the E1B-55 kDa protein was retained [1] is reported as > 62 % of cells, the cells with the E1B-55 kDa protein retained in the nucleus [1] is reported as 82 % of cells and the value for nuclear E1B-55 kDa protein retention [1] is reported as 80%.

“E4orf6 variant R248E (from UniProt P03239 1-294)” was tested, and the cells with predominantly nuclear E1B-55 kDa protein [1] was 85 % of cells.

With “E4orf6 variant R251A (from UniProt P03239 1-294)” the HeLa cells in which the E1B-55 kDa protein was retained [1] was > 62 % of cells and the value for nuclear E1B-55 kDa protein retention [1] was 99%.

“E4orf6 variant R251E (from UniProt P03239 1-294)” was tested, and the cells with predominantly nuclear E1B-55 kDa protein [1] was 85 % of cells.

B1: wild-type adenovirus E4orf6 protein (other)
chain: MTTSGVPFGMTLRPTRSRLSRRTPYSRDRLPPFETETRATILEDHPLLPECNTLTMHNVSYVRGLPCSVGFTLIQEWVVPWDMVLTREELVILRKCMHVCLCCANIDIMTSMMIHGYESWALHCHCSSPGSLQCIAGGQVLASWFRMVVDGAMFNQRFIWYREVVNYNMPKEVMFMSSVFMRGRHLIYLRLWYDGHVGSVVPAMSFGYSALHCGILNNIVVLCCSYCADLSEIRVRCCARRTRRLMLRAVRIIAEETTAMLYSCRTERRRQQFIRALLQHHRPILMHDYDSTPM
B1 was tested, and the “value for nuclear E1B-55 kDa protein retention” value (from here on “value”) [2] was 100%.

B2: E4orf6 variant R241E (other)
chain: MTTSGVPFGMTLRPTRSRLSRRTPYSRDRLPPFETETRATILEDHPLLPECNTLTMHNVSYVRGLPCSVGFTLIQEWVVPWDMVLTREELVILRKCMHVCLCCANIDIMTSMMIHGYESWALHCHCSSPGSLQCIAGGQVLASWFRMVVDGAMFNQRFIWYREVVNYNMPKEVMFMSSVFMRGRHLIYLRLWYDGHVGSVVPAMSFGYSALHCGILNNIVVLCCSYCADLSEIRVRCCARETRRLMLRAVRIIAEETTAMLYSCRTERRRQQFIRALLQHHRPILMHDYDSTPM
In the case of B2, the “value” value [2] is reported as 0.8%.

B3: E4orf6 variant R241A (other)
chain: MTTSGVPFGMTLRPTRSRLSRRTPYSRDRLPPFETETRATILEDHPLLPECNTLTMHNVSYVRGLPCSVGFTLIQEWVVPWDMVLTREELVILRKCMHVCLCCANIDIMTSMMIHGYESWALHCHCSSPGSLQCIAGGQVLASWFRMVVDGAMFNQRFIWYREVVNYNMPKEVMFMSSVFMRGRHLIYLRLWYDGHVGSVVPAMSFGYSALHCGILNNIVVLCCSYCADLSEIRVRCCARATRRLMLRAVRIIAEETTAMLYSCRTERRRQQFIRALLQHHRPILMHDYDSTPM
For B3, the “value” value [2] was 72%.

Source: US6844192 (WAKE FOREST UNIVERSITY, dated 2005)
